For this assay, the target named is Neh2-luciferase fusion protein (human; firefly).

“FLAG-labeled Keap1 expressed from an adenovirus” showed a background luminescence of the Neh2-luc reporter cell line (fold decrease) of 3.5.

(Values after patent US20130005666A1.)
